Assay results taken from US20260265354A1 (JIANGSU MABWELL HEALTH PHARMACEUTICAL R AND D, published 2026).

T1: Nectin-like-1 (UniProt Q8N126 25-330, limits assumed)
T1 construct: Bought recombinant protein; also called CADM3; IgSF4B
T1 sequence (looked up): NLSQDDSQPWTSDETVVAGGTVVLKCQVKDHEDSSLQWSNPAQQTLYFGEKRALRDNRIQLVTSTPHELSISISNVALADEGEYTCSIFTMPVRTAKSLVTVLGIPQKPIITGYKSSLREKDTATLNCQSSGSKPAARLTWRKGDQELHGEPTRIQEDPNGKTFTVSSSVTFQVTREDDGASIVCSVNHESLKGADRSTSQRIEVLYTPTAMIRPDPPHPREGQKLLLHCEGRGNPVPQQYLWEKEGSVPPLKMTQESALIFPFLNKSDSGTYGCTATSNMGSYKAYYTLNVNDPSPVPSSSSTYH

T2: Nectin-2 (UniProt Q92692 32-360, limits assumed)
T2 construct: Bought recombinant protein; also called CD112; PVRL-2
T2 sequence (looked up): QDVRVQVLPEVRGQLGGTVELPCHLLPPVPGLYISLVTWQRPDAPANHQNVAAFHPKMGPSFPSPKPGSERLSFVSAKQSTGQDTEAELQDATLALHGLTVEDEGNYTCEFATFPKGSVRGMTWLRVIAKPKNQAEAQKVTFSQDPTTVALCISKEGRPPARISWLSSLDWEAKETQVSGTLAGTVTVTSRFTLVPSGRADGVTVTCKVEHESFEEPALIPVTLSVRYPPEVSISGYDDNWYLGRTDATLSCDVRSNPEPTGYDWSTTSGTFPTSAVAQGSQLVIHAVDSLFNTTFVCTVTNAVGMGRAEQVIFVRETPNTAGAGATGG

T3: Nectin-like-5 (UniProt P15151 21-343)
T3 construct: Bought recombinant protein; also called CD155; PVR
T3 sequence (looked up): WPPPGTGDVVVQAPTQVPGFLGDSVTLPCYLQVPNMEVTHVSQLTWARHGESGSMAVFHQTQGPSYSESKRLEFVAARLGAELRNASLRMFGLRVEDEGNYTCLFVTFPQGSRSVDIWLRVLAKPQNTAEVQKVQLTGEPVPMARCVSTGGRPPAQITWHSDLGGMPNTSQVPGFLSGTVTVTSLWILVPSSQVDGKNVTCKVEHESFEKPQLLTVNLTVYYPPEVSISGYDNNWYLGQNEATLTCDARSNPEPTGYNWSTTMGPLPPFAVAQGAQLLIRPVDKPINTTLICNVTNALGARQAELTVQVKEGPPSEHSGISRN

T4: Nectin-like-4 (UniProt Q8NFZ8 21-324, limits assumed)
T4 construct: Bought recombinant protein; also called CADM4; IgSF4C
T4 sequence (looked up): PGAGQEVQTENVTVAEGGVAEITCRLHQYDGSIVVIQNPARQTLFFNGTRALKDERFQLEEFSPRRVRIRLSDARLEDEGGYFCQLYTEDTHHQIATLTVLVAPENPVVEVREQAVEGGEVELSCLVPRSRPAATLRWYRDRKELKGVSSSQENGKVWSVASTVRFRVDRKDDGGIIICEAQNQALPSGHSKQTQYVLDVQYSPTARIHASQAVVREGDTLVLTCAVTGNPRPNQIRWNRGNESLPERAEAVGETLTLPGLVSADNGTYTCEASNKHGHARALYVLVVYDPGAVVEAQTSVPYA

T5: Nectin-1 (UniProt Q15223 31-334, limits assumed)
T5 construct: Bought recombinant protein; also called CD111; PVRL-1
T5 sequence (looked up): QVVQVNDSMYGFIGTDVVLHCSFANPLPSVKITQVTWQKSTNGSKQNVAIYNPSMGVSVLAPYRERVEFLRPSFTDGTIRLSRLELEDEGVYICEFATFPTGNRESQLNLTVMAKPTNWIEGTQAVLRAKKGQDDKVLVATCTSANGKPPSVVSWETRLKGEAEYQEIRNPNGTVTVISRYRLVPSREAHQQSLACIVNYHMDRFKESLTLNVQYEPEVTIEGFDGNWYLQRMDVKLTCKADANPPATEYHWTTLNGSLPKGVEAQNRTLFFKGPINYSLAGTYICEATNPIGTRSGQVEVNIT

T6: Nectin-like-3 (UniProt Q8N3J6 25-367, limits assumed)
T6 construct: Bought recombinant protein; also called CADM2; IgSF4D
T6 sequence (looked up): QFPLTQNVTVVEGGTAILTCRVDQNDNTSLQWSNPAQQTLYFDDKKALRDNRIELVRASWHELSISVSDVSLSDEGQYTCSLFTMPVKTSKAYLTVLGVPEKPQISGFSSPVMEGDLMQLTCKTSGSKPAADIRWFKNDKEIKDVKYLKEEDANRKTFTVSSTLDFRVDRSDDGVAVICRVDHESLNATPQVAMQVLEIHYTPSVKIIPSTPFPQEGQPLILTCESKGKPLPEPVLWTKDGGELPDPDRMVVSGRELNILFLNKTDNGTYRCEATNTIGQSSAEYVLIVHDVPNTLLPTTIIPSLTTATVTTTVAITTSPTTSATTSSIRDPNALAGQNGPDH


Columns and labels:
Nectin-like-1 = target: T1, Nectin-like-1; assay: ELISA, coated antigen, antibody at 10 ng/ml
Protocol: (§1) Coating: Nectin-1, Nectin-2, Nectin-3, Nectin-4, Nectin-like-1, Nectin-like-2, Nectin-like-3, Nectin-like-4, and Nectin-like-5 were diluted to 5 μg/ml in coating buffer (carbonate buffer, pH 9.6) respectively. A 96-well plate was coat with 100 μl per well and incubated overnight at 2-8° C.;
(§2) Sample loading: The plate was taken out, patted dry, and washed twice with 200 μl/well of PBST, then patted dry. The Nectin-4 antibodies prepared in Example 1 (antibody MM11, antibody R012, and antibody R036) were diluted with 1% BSA/PBST to concentrations of 10 μg/ml, 1 μg/ml, 100 ng/ml, and 10 ng/ml, respectively. 1% BSA/PBST solution for dilution was set as a blank control. 100 μl per well was added to the 96-well plate, and incubated at room temperature for 2 hours;
(§3) Reaction termination and plate reading: 100 μl/well of 1 mol/L H3PO4 was added to terminate the reaction and the plated was read. The absorbances of wells in the plate at 450 nm with 650 nm as reference wavelength were read and recorded as OD_{450 nm-650 nm}.

Nectin-2 [1] = target: T2, Nectin-2; assay: ELISA, coated antigen, antibody at 10 ng/ml
Protocol: as §1, §2, §3

Nectin-3 = target: T7, Nectin-3 (UniProt Q9NQS3 58-404, limits assumed); assay: ELISA, coated antigen, antibody at 10 ng/ml
T7 construct: Bought recombinant protein; also called CD113; PVRL-3
Protocol: as §1, §2, §3

Nectin-like-5 = target: T3, Nectin-like-5; assay: ELISA, coated antigen, antibody at 10 ng/ml
Protocol: as §1, §2, §3

Nectin-like-4 = target: T4, Nectin-like-4; assay: ELISA, coated antigen, antibody at 10 ng/ml
Protocol: as §1, §2, §3

Nectin-1 = target: T5, Nectin-1; assay: ELISA, coated antigen, antibody at 10 ng/ml
Protocol: as §1, §2, §3

Nectin-like-3 = target: T6, Nectin-like-3; assay: ELISA, coated antigen, antibody at 10000 ng/ml
Protocol: as §1, §2, §3

Nectin-2 [2] = target: T2, Nectin-2; assay: ELISA, coated antigen, antibody at 10000 ng/ml
Protocol: as §1, §2, §3

T7 sequence (Q9NQS3 58-404 limits assumed): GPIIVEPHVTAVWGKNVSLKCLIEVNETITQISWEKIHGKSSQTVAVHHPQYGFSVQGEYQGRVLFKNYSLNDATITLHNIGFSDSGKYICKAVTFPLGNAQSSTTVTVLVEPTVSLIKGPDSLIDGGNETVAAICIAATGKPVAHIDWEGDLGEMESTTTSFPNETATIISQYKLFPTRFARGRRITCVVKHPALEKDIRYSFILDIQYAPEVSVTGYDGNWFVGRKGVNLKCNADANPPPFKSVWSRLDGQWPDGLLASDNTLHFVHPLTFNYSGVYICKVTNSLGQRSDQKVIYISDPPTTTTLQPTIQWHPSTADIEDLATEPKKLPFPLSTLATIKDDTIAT

Row | Binder | OD detection value (Nectin-like-1) [OD450 nm-650 nm] | OD detection value (Nectin-2 [1]) [OD450 nm-650 nm] | OD detection value (Nectin-3) [OD450 nm-650 nm] | OD detection value (Nectin-like-5) [OD450 nm-650 nm] | OD detection value (Nectin-like-4) [OD450 nm-650 nm] | OD detection value (Nectin-1) [OD450 nm-650 nm] | OD detection value (Nectin-like-3) [OD450 nm-650 nm] | OD detection value (Nectin-2 [2]) [OD450 nm-650 nm]
1 | Antibody MM11 (antibody, mouse IgG1, kappa, V domains shown, Mouse monoclonal antibody from hybridoma; also called Nectin-4 mouse monoclonal antibody MM11; mouse antibody MM11) VH: DVQLQESGPGLVKPSQSLSLTCSVTGYSITSNFYWNWIRQFPGNRLEWMGYISYDGSNNYNPSLKNRISISRDTSKNQFFLKLNSVTTEDTATYYCVRADYWGQGTLVTVSA VL: DTVMTQTPLSLPVSLGDQASISCRSSQSLESSDGHAYLNWYLQKPGQSPQLLIYRVSNRFSGVLHRFSGSGSGTDFTLKISRVEAEDLGVYFCLQFTHVPFTFGSGTKLEIKR | 0.006 | 0.014 | 0.006 | 0.006 | 0.004 | 0.006 | 0.032 | 0.017
2 | Antibody R012 (antibody, V domains shown, Rabbit monoclonal antibody from phage display; also called Nectin-4 rabbit monoclonal antibody R012; rabbit antibody R012) VH: SKSVEESGGRLVTPGTPLTLTCTVSGFSLSTYAMSWVRQAPGKGLEYIGIISGRGTTYYASWLKGRFTISKTSTTVDLKITSPTTEDTATYFCARDAGISDVYTGYFNLWGQGTLVTVSS VL: QPVLAQLPSASAALGASAKLTCTLSSAHRTYTIAWYQQQQGEAPRYLMMLKSDGSYTKGTGVPDRFSGSSSGADRYLIISSVQAADEADYYCGADDSGGYVFGGGTQLTVTG | 0.008 | 0.008 | 0.008 | 0.009 | 0.008 | 0.008 | 0.009 | 0.008
3 | Antibody R036 (antibody, V domains shown, Rabbit monoclonal antibody from phage display; also called Nectin-4 rabbit monoclonal antibody R036; rabbit antibody R036) VH: SQSVEESGGRLVTPGTPLTLTCTVSGFSLSSYAMSWVRQAPGKGLEYIGIIGGRGTTYYAIWAKGRFTISKTSTTVDLKITSPTTEDTATYFCARDAGTTYVGTTYVATGYFNLWGQGTLVTVSS VL: QPVLTQPPSASAALGASAKLTCTLSSAHKTYTIAWYQQQQGEAPRYLMILKSDGSYTRGTGVPDRFSGSSSGADRYLIISSVQADDEADYYCGADDSGGYVFGGGTQLTVTG | 0.007 | 0.007 | 0.007 | 0.009 | 0.007 | 0.007 | 0.008 | 0.007
